This is an account of results in IntAct's records for PubMed 18309292.

The labels stand for the following.
B1: Ras-related protein Rap-1b (Homo sapiens), P61224 (parent)
chain: MREYKLVVLGSGGVGKSALTVQFVQGIFVEKYDPTIEDSYRKQVEVDAQQCMLEILDTAGTEQFTAMRDLYMKNGQGFALVYSITAQSTFNDLQDLREQILRVKDTDDVPMILVGNKCDLEDERVVGKEQGQNLARQWNNCAFLESSAKSKINVNEIFYDLVRQINRKTPVPGKARKKSSCQLL

Variants of B1 are the subject of the first test. The following applies: with rpgp1_human RAP1GAP.
For the variant MREYKLVVLGSGGVGKSALTVQFVQGIFVEKYDPTIEDSYRKQVEVDAQQCMLEILDTAGTEQATAMRDLYMKNGQGFALVYSITAQSTFNDLQDLREQILRVKDTDDVPMILVGNKCDLEDERVVGKEQGQNLARQWNNCAFLESSAKSKINVNEIFYDLVRQINRKTPVPGKARKKSSCQLL [F64A], the “effect of a mutation on the interaction” value is on record as “disrupting interaction”.

The variants in another test derive from B1. The following applies: with rpgp1_human RAP1GAP. The source holds these as a separate data set.
On to MREYKLVVLGSGGVGKSALTVQFVQGIFVEKYDPTIEDSYRKQVEVDAQQCMLEILDTAGTEEFTAMRDLYMKNGQGFALVYSITAQSTFNDLQDLREQILRVKDTDDVPMILVGNKCDLEDERVVGKEQGQNLARQWNNCAFLESSAKSKINVNEIFYDLVRQINRKTPVPGKARKKSSCQLL [Q63E], for which the “effect of a mutation on the interaction” value is “disrupting interaction”.
